Data on one substance can be found in PMC12056172.

The target of this assay is FLAG-tagged RHOA (UniProt P61586). As to the kind of experiment: co-IP.
Chain of UniProt P61586 (P61586 whole entry): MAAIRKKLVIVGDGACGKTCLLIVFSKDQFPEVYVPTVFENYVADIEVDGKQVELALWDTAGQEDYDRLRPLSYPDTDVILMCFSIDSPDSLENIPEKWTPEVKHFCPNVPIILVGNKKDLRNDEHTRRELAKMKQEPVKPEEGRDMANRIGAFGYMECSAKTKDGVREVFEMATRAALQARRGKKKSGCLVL

“DAAM1-ΔDAD without microexon (-MIC) (domain or fragment)” gave a decrease of the co-IP signal against the +MIC construct of 40%.
